Measured values taken from patent publication US9963506B2, “Human-mouse chimeric anti-CD147 antibody with non-fucosylated glycosylation” (Fourth Military Medical University, priority 2015, dated 2018).

How the values were obtained:
NCI-H520 cells = experiment: Wound healing (migration) assay; format: cell-based, human
Procedure: (§1) Wound healing and transwell invasion assays were performed. For wound healing assay, 2×10^4 cells were plated in 24-well plate to form cell monolayer and allowed to reach confluence for 2 days. A wound was made in the monolayer (at time 0) by a 200 μl tip. After wash of the monolayer, Metuzumab solution was dispensed at 0.1 μg/ml, 1 μg/ml and 10 μg/ml, respectively, at 200 μl/well into each well. Saline was used as control. The distance between two sides of an open wound was measured under a CX71 microscope (Olympus). The distance between the two sides of the wound after 20-72 h of migration was divided by the distance at time 0 and represented on a graph. The experiments were performed in triplicates, the results were shown as mean±SD.

A549 cells = experiment: Wound healing (migration) assay; format: cell-based, human
Procedure: as §1

CD147 = target: T1, CD147 (Homo sapiens, UniProt P35613); experiment: Immunohistochemical detection of CD147 in human cancer tissue arrays (tissue cross reactivity); format: binding
T1 construct: FFPE tissue sections from a selected panel of human cancer tissue arrays; tissue Chaoying Biotechnology Co., LTD, China; host or cells: human cancer tissue arrays (lung, ovarian, stomach, esophagus, breast, cervical, liver, colon cancer), FFPE
T1 sequence (P35613 22-269 isoform P35613-2 limits assumed): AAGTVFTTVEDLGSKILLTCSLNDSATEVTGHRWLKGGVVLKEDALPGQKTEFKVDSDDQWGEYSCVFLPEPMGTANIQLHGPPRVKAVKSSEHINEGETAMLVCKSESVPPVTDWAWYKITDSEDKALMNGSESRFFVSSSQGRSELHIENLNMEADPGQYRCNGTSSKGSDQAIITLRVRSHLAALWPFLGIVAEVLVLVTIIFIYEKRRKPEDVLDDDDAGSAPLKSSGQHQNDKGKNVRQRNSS
Procedure: To test the specificity of Metuzumab (HcHAb18), tissue cross reactivity of Metuzumab was evaluated in FFPE tissue sections from a selected panel of human cancer tissue arrays (Chaoying Biotechnology Co., LTD, China.). Slides were microwaved for 10 min in 10 mM sodium citrated (pH 6.0), cooled for 30 min at 25° C. After incubating for 10 min in 3% H2O2 to block endogenous peroxidase, and blocking for 1 hr in 10% goat serum, slides were incubated overnight in a humidity chamber with biotinylated Metuzumab (30 μg/ml). Binding was visualized with streptavidin-conjugated peroxidase (ZsBio, China) and DAB detection system (ZsBio, China). Sections were analyzed using a bright-field microscope. The staining results were evaluated by 2 experienced pathologist in a blinded manner and classified into four categories: of 0 (no visible staining), 1+ (light brown), 2+ (mid-brown), and 3+ (dark brown), respectively, with the same intensity covering more than 75% of the staining area.

Positive rate (CD147; Colon cancer): 82.00%
Sensitivity response rate (CD147; Colon cancer): 82.00%
Specificity (CD147; Colon cancer): 84.00%
Tumor tissues specifically bound (positive/total) (CD147; Colon cancer): 41/50
Staining level 0 (no visible staining), number of tissues (CD147; Colon cancer, number 50): 9
Staining level 1+ (light brown), number of tissues (CD147; Colon cancer, number 50): 8
Staining level 2+ (mid-brown), number of tissues (CD147; Colon cancer, number 50): 26
Staining level 3+ (dark brown), number of tissues (CD147; Colon cancer, number 50): 7
Positive rate (CD147; Esophagus cancer): 93.75%
Sensitivity response rate (CD147; Esophagus cancer): 93.75%
Specificity (CD147; Esophagus cancer): 81.25%
Tumor tissues specifically bound (positive/total) (CD147; Esophagus cancer): 30/32
Staining level 0 (no visible staining), number of tissues (CD147; Esophagus cancer, number 32): 2
Staining level 1+ (light brown), number of tissues (CD147; Esophagus cancer, number 32): 6
Staining level 2+ (mid-brown), number of tissues (CD147; Esophagus cancer, number 32): 13
Staining level 3+ (dark brown), number of tissues (CD147; Esophagus cancer, number 32): 11
Positive rate (CD147; Liver cancer): 85.00%
Sensitivity response rate (CD147; Liver cancer): 85.00%
Specificity (CD147; Liver cancer): 75.00%
Tumor tissues specifically bound (positive/total) (CD147; Liver cancer): 17/20
Staining level 0 (no visible staining), number of tissues (CD147; Liver cancer, number 20): 3
Staining level 1+ (light brown), number of tissues (CD147; Liver cancer, number 20): 11
Staining level 2+ (mid-brown), number of tissues (CD147; Liver cancer, number 20): 6
Positive rate (CD147; Lung cancer): 88.24%
Sensitivity response rate (CD147; Lung cancer): 88.24%
Specificity (CD147; Lung cancer): 91.67%
Tumor tissues specifically bound (positive/total) (CD147; Lung cancer): 60/68
Staining level 0 (no visible staining), number of tissues (CD147; Lung cancer, number 68): 8
Staining level 1+ (light brown), number of tissues (CD147; Lung cancer, number 68): 5
Staining level 2+ (mid-brown), number of tissues (CD147; Lung cancer, number 68): 23
Staining level 3+ (dark brown), number of tissues (CD147; Lung cancer, number 68): 32
Positive rate (CD147; Mammary cancer): 90.00%
Sensitivity response rate (CD147; Mammary cancer): 90.00%
Specificity (CD147; Mammary cancer): 77.50%
Staining level 0 (no visible staining), number of tissues (CD147; Mammary cancer, number 40): 4
Staining level 1+ (light brown), number of tissues (CD147; Mammary cancer, number 40): 6
Staining level 2+ (mid-brown), number of tissues (CD147; Mammary cancer, number 40): 11
Staining level 3+ (dark brown), number of tissues (CD147; Mammary cancer, number 40): 19
Positive rate (CD147; Mammary tissue): 22.50%
Staining level 0 (no visible staining), number of tissues (CD147; Mammary tissue, number 40): 31
Staining level 1+ (light brown), number of tissues (CD147; Mammary tissue, number 40): 5
Staining level 2+ (mid-brown), number of tissues (CD147; Mammary tissue, number 40): 2
Staining level 3+ (dark brown), number of tissues (CD147; Mammary tissue, number 40): 2
Positive rate (CD147; Normal cervix uteri): 0%
Staining level 0 (no visible staining), number of tissues (CD147; Normal cervix uteri, number 4): 4
Staining level 1+ (light brown), number of tissues (CD147; Normal cervix uteri, number 4): 0
Staining level 2+ (mid-brown), number of tissues (CD147; Normal cervix uteri, number 4): 0
Staining level 3+ (dark brown), number of tissues (CD147; Normal cervix uteri, number 4): 0
Positive rate (CD147; Normal colon): 16.00%
Staining level 0 (no visible staining), number of tissues (CD147; Normal colon, number 50): 42
Staining level 1+ (light brown), number of tissues (CD147; Normal colon, number 50): 5
Staining level 2+ (mid-brown), number of tissues (CD147; Normal colon, number 50): 2
Staining level 3+ (dark brown), number of tissues (CD147; Normal colon, number 50): 1
Positive rate (CD147; Normal esophagus): 18.75%
Staining level 0 (no visible staining), number of tissues (CD147; Normal esophagus, number 16): 13
Staining level 1+ (light brown), number of tissues (CD147; Normal esophagus, number 16): 3
Staining level 2+ (mid-brown), number of tissues (CD147; Normal esophagus, number 16): 0
Staining level 3+ (dark brown), number of tissues (CD147; Normal esophagus, number 16): 0
Positive rate (CD147; Normal liver): 25.00%
Staining level 0 (no visible staining), number of tissues (CD147; Normal liver, number 4): 3
Staining level 1+ (light brown), number of tissues (CD147; Normal liver, number 4): 0
Staining level 2+ (mid-brown), number of tissues (CD147; Normal liver, number 4): 1
Staining level 3+ (dark brown), number of tissues (CD147; Normal liver, number 4): 0
Positive rate (CD147; Normal lung): 8.33%
Staining level 0 (no visible staining), number of tissues (CD147; Normal lung, number 12): 10
Staining level 1+ (light brown), number of tissues (CD147; Normal lung, number 12): 2
Staining level 2+ (mid-brown), number of tissues (CD147; Normal lung, number 12): 0
Staining level 3+ (dark brown), number of tissues (CD147; Normal lung, number 12): 0
Positive rate (CD147; Normal ovary): 0%
Staining level 0 (no visible staining), number of tissues (CD147; Normal ovary, number 12): 12
Staining level 1+ (light brown), number of tissues (CD147; Normal ovary, number 12): 0
Staining level 2+ (mid-brown), number of tissues (CD147; Normal ovary, number 12): 0
Staining level 3+ (dark brown), number of tissues (CD147; Normal ovary, number 12): 0
Positive rate (CD147; Ovary cancer): 75%
Sensitivity response rate (CD147; Ovary cancer): 75.00%
Specificity (CD147; Ovary cancer): 100%
Staining level 0 (no visible staining), number of tissues (CD147; Ovary cancer, number 12): 3
Staining level 1+ (light brown), number of tissues (CD147; Ovary cancer, number 12): 2
Staining level 2+ (mid-brown), number of tissues (CD147; Ovary cancer, number 12): 3
Staining level 3+ (dark brown), number of tissues (CD147; Ovary cancer, number 12): 4
Tumor tissues specifically bound (positive/total) (CD147; breast cancer): 36/40
Positive rate (CD147; cervical cancer): 85.00%
Sensitivity response rate (CD147; cervical cancer): 85.00%
Specificity (CD147; cervical cancer): 100%
Tumor tissues specifically bound (positive/total) (CD147; cervical cancer): 17/20
Staining level 0 (no visible staining), number of tissues (CD147; cervical cancer, number 20): 3
Staining level 1+ (light brown), number of tissues (CD147; cervical cancer, number 20): 2
Staining level 2+ (mid-brown), number of tissues (CD147; cervical cancer, number 20): 5
Staining level 3+ (dark brown), number of tissues (CD147; cervical cancer, number 20): 10
Positive rate (CD147; gastric cancer): 78.26%
Sensitivity response rate (CD147; gastric cancer): 78.26%
Specificity (CD147; gastric cancer): 80.95%
Staining level 0 (no visible staining), number of tissues (CD147; gastric cancer, number 23): 5
Staining level 1+ (light brown), number of tissues (CD147; gastric cancer, number 23): 1
Staining level 2+ (mid-brown), number of tissues (CD147; gastric cancer, number 23): 7
Staining level 3+ (dark brown), number of tissues (CD147; gastric cancer, number 23): 10
Positive rate (CD147; normal stomach): 19.05%
Staining level 0 (no visible staining), number of tissues (CD147; normal stomach, number 21): 17
Staining level 1+ (light brown), number of tissues (CD147; normal stomach, number 21): 3
Staining level 2+ (mid-brown), number of tissues (CD147; normal stomach, number 21): 1
Staining level 3+ (dark brown), number of tissues (CD147; normal stomach, number 21): 0
Tumor tissues specifically bound (positive/total) (CD147; ovarian cancer): 9/12
Tumor tissues specifically bound (positive/total) (CD147; stomach cancer): 18/23
Substance: Metuzumab: human-mouse chimeric anti-CD147 IgG1, heavy chain SEQ ID NO: 4, light chain SEQ ID NO: 3, Mannose-5 glycoform lacking fucose and xylose
migration activity decrease compared to control group (NCI-H520 cells; NCI-H520, 0.1 μg/ml): 20.2%
migration rate (NCI-H520 cells; NCI-H520, 0.1 μg/ml (saline 18.8 μm/hr)): 15.0 μm/hr
migration activity decrease compared to control group (NCI-H520 cells; NCI-H520, 1 μg/ml): 34.0%
migration rate (NCI-H520 cells; NCI-H520, 1 μg/ml (saline 18.8 μm/hr)): 12.4 μm/hr
migration activity decrease compared to control group (NCI-H520 cells; NCI-H520, 10 μg/ml): 44.1%
migration rate (NCI-H520 cells; NCI-H520, 10 μg/ml (saline 18.8 μm/hr)): 10.5 μm/hr
migration activity repressed compared to control group (A549 cells; A549, 0.1 μg/ml): 24.4%
migration rate (A549 cells; A549, 0.1 μg/ml (control 20.1 μm/hr)): 15.2 μm/hr
migration activity repressed compared to control group (A549 cells; A549, 1 μg/ml): 38.3%
migration rate (A549 cells; A549, 1 μg/ml (control 20.1 μm/hr)): 12.4 μm/hr
migration activity repressed compared to control group (A549 cells; A549, 10 μg/ml): 50%
migration rate (A549 cells; A549, 10 μg/ml (control 20.1 μm/hr)): 10.1 μm/hr
